Where no end group is shown, it is not given here.
Key:
Test in all cases: ELISA; competition ELISA as described in ref. 20: synthetic peptide in solution blocks PDZ domain binding to immobilized peptide; IC50 = peptide concentration that blocked 50% of binding; no detectable interaction = IC50 > 500 μM
Conditions in all cases: both partners purified
SCRIB PDZ domain 2 = target: T1, SCRIB PDZ domain 2 (human, UniProt Q14160 862-950)
T1 construct: also called SCRIB-2
T1 sequence (looked up): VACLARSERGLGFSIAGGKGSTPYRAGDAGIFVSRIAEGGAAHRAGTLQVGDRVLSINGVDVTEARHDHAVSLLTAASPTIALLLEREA

SCRIB PDZ domain 3 = target: T2, SCRIB PDZ domain 3 (human, UniProt Q14160 1004-1093)
T2 construct: also called SCRIB-3
T2 sequence (looked up): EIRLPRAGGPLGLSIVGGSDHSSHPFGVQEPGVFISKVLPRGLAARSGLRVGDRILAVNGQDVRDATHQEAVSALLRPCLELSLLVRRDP

SCRIB PDZ domain 1 = target: T3, SCRIB PDZ domain 1 (human, UniProt Q14160 728-815)
T3 construct: also called SCRIB-1
T3 sequence (Q14160 728-815): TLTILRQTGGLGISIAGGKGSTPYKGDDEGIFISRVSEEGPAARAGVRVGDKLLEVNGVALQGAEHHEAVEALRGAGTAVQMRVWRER

Measured: IC50

RQIKIWFQNRRMKWKKRSWFEAWA (not fully specified (C-terminus)) [designed nonbinding peptide Π–RSWFEAWA (peptide 15)]
> 500 µM: all assays above
